From patent US11110182B2, “Multifunctional RNA nanoparticles and methods for treating cancer and therapeutic resistant cancer” (University of Cincinnati, priority 2016, dated 2021) come the findings set out here.

For this series, the system named is BT474 cells. The series can be described thus: Transwell migration and invasion assay, BT474 cells. The class given is cell-based, human. Particulars: for invasion ability: Matrigel-coated transwell. The method, then:
FIG. 3A) BT474 cells were incubated with 10 μg/mL control and pRNA-HER2apt-siMED1 nanoparticles for 48 h, and MED1 mRNA level was determined by real-time PCR. FIG. 3B) BT474 cells were incubated directly with (as indicated by -) or transfected with indicated pRNAs using lipofectamine 2000. At 48 h post treatment, MED1 protein levels were determined by western blotting. FIG. 3C) BT474 cells were treated with 10 μg/mL pRNA nanoparticles for 48 h and assayed for cell viability by MTT assay. FIG. 3D) Cells were treated as above and seeded for migration, and FIG. 3E) invasion transwell assays. Scale bar: 50 μm. FIG. 3F) After pRNA treatment for 48 h, the mRNA levels of ERα target genes TFF-1, FIG. 3G) c-Myc, and FIG. 3H) cyclin D1 in BT474 cells were determined by real-time PCR.
FIG. 4A) BT474 cells were treated with pRNA nanoparticles in combination with vehicle or 1 μM 4-hydroxy-tamoxifen (4-OHT) as indicated for 48 h, and assayed for cell viability by MTT assay. FIG. 4B) Cells were treated as above and the migration and FIG. 4C) invasion capabilities were examined. FIG. 4D) Cells were treated as above and assayed for in vitro mammosphere formation. FIG. 4E) The number of mammospheres was counted, and FIG. 4F) the mammosphere size was calculated. Scale bar: 10 μm.
FIG. 11. […] BT474 cells were treated with pRNA nanoparticles alone or together with 1 μM 4-hydroxy-tamoxifen (4-OHT) for 48 h. Cell migration and invasion were then examined using transwell assay. Photos were recorded using an Olympus SZX12 microscope. Scale bar: 100 μm.
Migration and metastasis assay. The 8-μm-pore-size polycarbonate membrane, which separates the two chambers of a 6.5-mm Transwell (Costar), was coated with or without 1:8 DMEM-diluted Matrigel (Corning). Transwell assay was performed as previously described.^57 Briefly, BT474 cells were treated with pRNAs alone or together with 4-hydroxy-tamoxifen (4-OHT) for 48 h and starved with serum-free DMEM containing 0.2% BSA overnight. On the next day, cells were collected and 2×10^5 cells were seeded to the upper chamber of Transwell. The lower chamber was filled with 600 μL DMEM medium containing 10% FBS. After incubation at 37° C. for 24 h, cells on the membranes were fixed and stained with 0.1% crystal violet in 20% ethanol solution. Cells at top side of membranes were removed completely, and cells at the bottom side were examined with an Olympus SZX12 microscope and counted. • Mammosphere culture and breast cancer stem cell analyses. BT474 cells were treated with pRNAs for 48 h. Then, cells were suspended in DMEM/F12 medium supplemented with 1×B27 (Thermo Fisher), 20 ng/mL bFGF and 20 ng/mL EGF (R&D), and added into 24-well ultralow attachment plates. After treatment with or without 1 μM 4-OHT for 7 days, mammosphere formation was recorded using an Axiovert S100 TV inverted microscope (Zeiss). Xenograft tumor tissues were cut into small pieces and digested with trypsin and collagenase at 37° C. for 1 h, and tumor cells were collected and rinsed with pre-cold PBS. All cells were stained with FITC-conjugated anti-CD44 antibody and PE-conjugated anti-CD24 antibody (BD Pharmingen) in the dark on ice for 30 min. After resuspension with 0.5 mL PBS buffer, CD44^+/CD24^−/low cell population was analyzed by flow cytometry. • Orthotopic xenograft breast tumor mouse model, in vivo imaging and anti-tumor therapy. […]

The mark [1] stands for this setting: BT474, in combination with 1 μM 4-hydroxy-tamoxifen, 48 h.

B1: pRNA-HER2apt-siMED1: 3-WJ pRNA nanoparticle bearing a HER2-targeting RNA aptamer and two different MED1 siRNAs; strands p1 SEQ ID NO: 3, p2 SEQ ID NO: 4 (nucleic acid)
chain 1: GGACAGUGAAAGUGAGUCAAAGGAUCAAUCAUGGCCAAAGAUGUUACUUUGAGAGCCUU
chain 2: GGCUCUCAAAGUAACAUCUAAGGCCAUGUGUAUGUGGGGGGAGGACGAUGCGGUCUGCUGUGCUUGAUAUGCCCCAGACGACUCGCCCCCCACAUACUUUGUUGAUCCAAUGACUCACUUUCACUGUCCUU
modifications: 2'-F modification; third strand may lack entry; pRNA-HER2apt-siMED1, p1; pRNA-HER2apt-siMED1, p2
Consider B1, for which the invasion ability result (BT474, 48 h treatment) is on record as “specifically suppressed”. For the same molecule, the migration ability entry (BT474, 48 h treatment, transwell without Matrigel) is recorded as “specifically suppressed”. Under setting [1], the “effect on tamoxifen inhibition of invasion” value was “significantly enhanced the inhibitory effects of tamoxifen” and the “effect on tamoxifen inhibition of migration” value is reported as “significantly enhanced the inhibitory effects of tamoxifen”.

B2: pRNA-HER2apt^mut-siMED1: control pRNA nanoparticle with mutant HER2 aptamer; strands p1 SEQ ID NO: 5, p2 SEQ ID NO: 6 (nucleic acid)
chain 1: B1 chain 1
chain 2: GGCUCUCAAAGUAACAUCUAAGGCCAUGUGUAUGUGGGAUGAGGAGUAUGAAGAUACCUGUACUUGAUAUGCCCCAGACGACAUUCCCCCCACAUACUUUGUUGAUCCAAUGACUCACUUUCACUGUCCUU
modifications: pRNA-HER2apt(mut)-siMED1, p1; pRNA-HER2apt(mut)-siMED1, p2
For the molecule B2, the invasion ability result (BT474, 48 h treatment) is “not”.
